From US20250011433A1 (GLIKNIK, published 2025)
Positions count from the first letter of the chain named. In names and notes the source's numbering stands. Where two headings read alike, the source gives them in different places.

T1: FcγRIIb (UniProt P31994 46-217, limits assumed)
T1 sequence (looked up): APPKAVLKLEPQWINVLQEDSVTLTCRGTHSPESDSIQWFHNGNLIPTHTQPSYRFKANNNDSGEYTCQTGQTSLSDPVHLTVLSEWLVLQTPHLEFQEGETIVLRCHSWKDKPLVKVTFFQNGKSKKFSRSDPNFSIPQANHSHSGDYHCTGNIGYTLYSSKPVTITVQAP

T2: FcγRIIa (UniProt P12318 36-218, limits assumed)
T2 sequence (looked up): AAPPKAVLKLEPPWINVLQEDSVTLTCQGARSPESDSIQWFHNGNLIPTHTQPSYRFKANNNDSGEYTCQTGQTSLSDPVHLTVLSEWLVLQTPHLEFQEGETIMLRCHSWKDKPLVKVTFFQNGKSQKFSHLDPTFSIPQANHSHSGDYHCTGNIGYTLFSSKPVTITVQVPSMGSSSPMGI

T3: mouse FcγRIIb (mouse, UniProt P08101 30-207, limits assumed)
T3 sequence (looked up): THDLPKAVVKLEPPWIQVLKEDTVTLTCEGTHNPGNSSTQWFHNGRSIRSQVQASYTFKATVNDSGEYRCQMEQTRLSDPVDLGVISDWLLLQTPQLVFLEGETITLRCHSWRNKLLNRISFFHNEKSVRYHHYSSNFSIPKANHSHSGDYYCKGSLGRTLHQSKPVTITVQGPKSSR

T4: mouse FcγRIII (mouse, UniProt P08508 31-215, limits assumed)
T4 sequence (looked up): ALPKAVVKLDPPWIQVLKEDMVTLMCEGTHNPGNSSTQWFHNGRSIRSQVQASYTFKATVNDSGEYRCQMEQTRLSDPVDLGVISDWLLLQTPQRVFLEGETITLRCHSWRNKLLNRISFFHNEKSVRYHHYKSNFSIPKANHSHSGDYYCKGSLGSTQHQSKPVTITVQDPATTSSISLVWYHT

T5: mouse FcγRIV (mouse, UniProt A0A0B4J1G0 21-203)
T5 construct: not shown: any purification tag (e.g. His tag) on the soluble recombinant receptor used in biolayer interferometry; not described in the passages seen
T5 sequence: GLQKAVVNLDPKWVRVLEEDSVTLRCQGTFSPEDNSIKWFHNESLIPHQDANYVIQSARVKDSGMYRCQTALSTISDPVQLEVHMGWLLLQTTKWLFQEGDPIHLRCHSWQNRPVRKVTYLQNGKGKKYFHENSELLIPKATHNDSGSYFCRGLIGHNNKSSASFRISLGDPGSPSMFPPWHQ

B1: G994 (Fc fusion)
chain: EPKSCDKTHTCPPCPAPPLLRGPSVFLFPPKPKDTLMISRTPEVTCVVVDVEFEDPEVKFNWYVDGVEVHNAKTKPREEQYNSTYRVVSVLTVLHQDWLNGKEYKCKVTNKALPAPIEKTISKAKGQPREPQVYTLPPSRDELTKNQVSLTCLVKGFYPSDIAVEWESNGQPENNYKTTPPVLDSDGSFFLYSKLTVDKSRWQQGNVFSCSVMHEALHNHYTQKSLSLSPGKERKCCVECPPCP
notes: G045c background, E233P/G236R/S267E/H268F/S324T; leader 1-20 cleaved; also called G994 (DEL); G994 (EEM)
B2: G996 (Fc fusion)
chain: B1 chain with P18E
notes: G045c background, G236R/S267E/H268F/S324T; leader 1-20 cleaved
B3: G998 (Fc fusion)
chain: B1 chain with P18E, R21G, N82A
notes: G045c background, S267E/H268F/N297A/S324T; leader 1-20 cleaved; also called G998 (DEL); G998 (EEM)
B4: G1031 (Fc fusion)
chain: B1 chain with D50A, N82A
B5: G1033 (Fc fusion)
chain: B1 chain with P18E, L19A, L20A, R21G, N82A
notes: G045c background, L234A/L235A/S267E/H268F/N297A/S324T; leader 1-20 cleaved; also called G1033 (DEL); G1033 (EEM)
B6: G1045 (Fc fusion)
chain: B1 chain with P18E, R21G, P23D, D50P
B7: G1047 (Fc fusion)
chain: B1 chain with P18E, R21G, P23D, L113F
B8: G999 (Fc fusion)
chain: ERKCCVECPPCPEPKSCDKTHTCPPCPAPELLRGPSVFLFPPKPKDTLMISRTPEVTCVVVDVEFEDPEVKFNWYVDGVEVHNAKTKPREEQYNSTYRVVSVLTVLHQDWLNGKEYKCKVTNKALPAPIEKTISKAKGQPREPQVYTLPPSRDELTKNQVSLTCLVKGFYPSDIAVEWESNGQPENNYKTTPPVLDSDGSFFLYSKLTVDKSRWQQGNVFSCSVMHEALHNHYTQKSLSLSPGK
notes: G019 background, G236R/S267E/H268F/S324T
B9: G1024 (Fc fusion)
chain: B8 chain with R33G, P35D, D153E, L155M
notes: G019 background, P238D/S267E/H268F/S324T
B10: G1022 (Fc fusion)
chain: EPKSCDKTHTCPPCPAPPVAGPSVFLFPPKPKDTLMISRTPEVTCVVVDVEFEDPEVKFNWYVDGVEVHNAKTKPREEQYASTYRVVSVLTVLHQDWLNGKEYKCKVTNKALPAPIEKTISKAKGQPREPQVYTLPPSRDELTKNQVSLTCLVKGFYPSDIAVEWESNGQPENNYKTTPPVLDSDGSFFLYSKLTVDKSRWQQGNVFSCSVMHEALHNHYTQKSLSLSPGKERKCCVECPPCP
notes: G045c background, E233P/L234V/L235A/S267E/H268F/N297A/S324T, G236 deleted; leader 1-20 cleaved
B11: G1050 (Fc fusion)
chain: B10 chain with L112F
notes: G045c background, E233P/L234V/L235A/S267E/H268F/N297A/S324T/L328F, G236 deleted; leader 1-20 cleaved

Assays:
FcγRI [1] = target: T6, FcγRI (UniProt P12314 16-288); test: BLI (Octet)
T6 construct: also called CD64
Experimental: (§1) Binding of complement-preferential stradomers or parent stradomer G045c to FcγRI, FcγRIIb, FcγRIIIa, FcγRIIa, or FcRn was assessed. RU values of dissociation were measured by biolayer interferometry using a ForteBio Octet instrument. His-tagged receptor proteins were bound to the sensor tip in 1× kinetic analysis buffer from ForteBio after which the on rate of the receptor/protein was measured by transferring the sensor tip to a 1× kinetics buffer containing the purified stradomer of choice. Off rate was measured by transferring the sensor tip to a 1× kinetics buffer, and RU value was calculated from the measured maximum binding using the ForteBio software. Biolayer interferometry detects the binding between a ligand immobilized on the biosensor tip surface and an analyte in solution. When binding occurs it produces an increase in optical thickness at the biosensor tip, which results in a wavelength shift (detected as a response unit of “RU”). The maximum binding level (RU max) is the maximum possible amount of sample binding at equilibrium that saturates the amount of ligand on the sensor surface. The RU 300 is the residual sample binding after 300 seconds of dissociation and is useful to characterize the rate of dissociation of the test article from the test ligand.

FcγRIIb [2] = target: T1, FcγRIIb; test: BLI (Octet)
Experimental: as §1

C1q [3] = target: T7, C1q (UniProt P02745 23-245; P02746 28-253; P02747 29-245); test: ELISA on coated C1q
T7 construct: bought C1q coated on ELISA plates at 1 µg/ml; also called complement C1q; complement factor C1q
Experimental: For C1q binding, 96 well plates were coated with C1q (Sigma Cat #: C1740 1 μg/ml) overnight in PBS. After coating, plates were washed 3 times with standard wash buffer (iX PBS+0.05% Tween 20) and blocked with blocking buffer (1% BSA+1× PBS+0.05% Tween 20) for 2 hours at RT. Following blocking, plates were incubated with compound diluted in blocking buffer 100 μL/well and washed 3 times with standard washing buffer. C1q-bound compound was detected by incubation with 1:5000 biotinylated mouse anti-human IgG1(Cat #555869, BD Biosciences) and Streptavidin-HRP (Cat #: 7100-05 Southern Biotech) (100 μl/well) for 1 hour at room temperature followed by washing 3 times with washing buffer, after which color was developed using the standard TMB method according to manufacturer's protocol for 15 minutes. Absorbance was read at 450 nm.

FcγRIIa = target: T2, FcγRIIa; test: BLI (Octet); legend: - indicates no binding
Experimental: as §1

FcγRIIIa = FcγRIIIa (UniProt P08637 17-208); test: BLI (Octet); legend: - indicates no binding
Experimental: as §1

C3 complement component = target: T8, C3 complement component (UniProt P01024 23-1663); test: ELISA on coated C3
T8 construct: bought protein coated on ELISA plates at 1 µg/ml

mouse FcγRIIb = target: T3, mouse FcγRIIb; test: BLI (Octet), FIG. 19 bottom panels
mouse FcγRIII = target: T4, mouse FcγRIII; test: BLI (Octet), FIG. 19 bottom panels
mouse FcγRIV = target: T5, mouse FcγRIV; test: BLI (Octet), FIG. 19 bottom panels
C1q [4] = target: T7, C1q; test: ELISA on coated C1q; remark: listed apart in the source
FcγRIIb [5] = target: T1, FcγRIIb; test: BLI (Octet); legend: - indicates no binding
Experimental: as §1

FcγRI [6] = target: T6, FcγRI; test: BLI (Octet); remark: listed apart in the source
FcγRIIb [7] = target: T1, FcγRIIb; test: BLI (Octet); remark: listed apart in the source
C1q [8] = target: T7, C1q; test: ELISA on coated C1q; remark: listed apart in the source
FcγRI [9] = target: T6, FcγRI; test: BLI (Octet); legend: - indicates no binding
Experimental: as §1

T6 sequence (P12314 16-288 limits assumed): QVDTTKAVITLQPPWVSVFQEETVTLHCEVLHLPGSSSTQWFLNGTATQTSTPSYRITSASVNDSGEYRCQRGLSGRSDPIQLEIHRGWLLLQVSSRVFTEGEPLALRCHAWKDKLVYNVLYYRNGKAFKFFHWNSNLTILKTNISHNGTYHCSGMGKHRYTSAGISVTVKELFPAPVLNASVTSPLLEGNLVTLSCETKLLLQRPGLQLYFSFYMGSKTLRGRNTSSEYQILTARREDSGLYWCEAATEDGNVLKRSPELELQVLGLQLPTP
T7 sequence (P02745 23-245 limits assumed, chain 1 of 3): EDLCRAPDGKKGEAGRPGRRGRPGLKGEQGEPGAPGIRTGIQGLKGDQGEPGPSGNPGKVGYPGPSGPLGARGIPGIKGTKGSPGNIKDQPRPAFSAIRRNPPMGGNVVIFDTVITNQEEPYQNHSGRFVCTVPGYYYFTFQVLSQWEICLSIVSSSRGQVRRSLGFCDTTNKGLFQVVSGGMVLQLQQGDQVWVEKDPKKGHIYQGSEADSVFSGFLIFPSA
T7 sequence (P02746 28-253 limits assumed, chain 2 of 3): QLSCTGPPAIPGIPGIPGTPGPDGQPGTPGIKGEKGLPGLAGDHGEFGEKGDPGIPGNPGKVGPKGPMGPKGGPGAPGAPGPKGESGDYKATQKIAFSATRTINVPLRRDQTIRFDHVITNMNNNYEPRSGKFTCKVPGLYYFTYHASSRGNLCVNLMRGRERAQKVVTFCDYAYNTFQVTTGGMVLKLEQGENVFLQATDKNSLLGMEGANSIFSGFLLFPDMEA
T7 sequence (P02747 29-245 limits assumed, chain 3 of 3): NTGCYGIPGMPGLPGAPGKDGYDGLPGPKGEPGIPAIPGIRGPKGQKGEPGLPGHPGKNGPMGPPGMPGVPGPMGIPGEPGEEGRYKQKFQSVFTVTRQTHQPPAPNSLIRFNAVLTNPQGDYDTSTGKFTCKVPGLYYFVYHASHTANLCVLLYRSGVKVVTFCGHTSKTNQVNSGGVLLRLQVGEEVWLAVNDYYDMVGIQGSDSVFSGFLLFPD
Chain of FcγRIIIa (P08637 17-208 limits assumed): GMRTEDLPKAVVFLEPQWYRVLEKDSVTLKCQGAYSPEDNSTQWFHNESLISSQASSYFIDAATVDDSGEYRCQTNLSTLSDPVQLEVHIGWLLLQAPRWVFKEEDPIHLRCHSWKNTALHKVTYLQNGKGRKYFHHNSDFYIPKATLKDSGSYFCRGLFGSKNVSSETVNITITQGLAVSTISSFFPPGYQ

Binder	binding result (FcγRI [1])	binding result (FcγRIIb [2])	binding result (C1q [3])	binding result (FcγRIIIa)	also measured
B1	binds	binds	binds	no binding	binding result (FcγRIIa): no binding
B2	binds	binds	binds	no binding	binding result (C3 complement component): no binding (tested: 100 µg/ml top concentration); binding result (mouse FcγRIIb): no binding; binding result (mouse FcγRIII): no binding; binding result (mouse FcγRIV): no binding
B3	binds	binds	binds	no binding	binding result (FcγRIIa): no binding
B4	–	–	–	–	binding result (C1q [4]): no binding
B5	binds	–	binds	no binding	binding result (FcγRIIb [5]): no binding
B6	–	–	–	–	binding result (FcγRI [6]): binds; binding result (C1q [4]): no binding
B7	–	–	–	–	binding result (FcγRI [6]): binds; binding result (FcγRIIb [7]): binds
B8	–	–	–	–	binding result (FcγRI [6]): binds; binding result (FcγRIIb [7]): binds; binding result (C1q [8]): no binding
B9	–	–	–	–	binding result (C1q [4]): no binding
B10	–	–	–	no binding	binding result (FcγRI [9]): no binding
B11	–	binds	binds	no binding	binding result (FcγRI [9]): no binding
